B1: unnamed (parent)
chain 1: MASMGLQVMGIALAVLGWLAVMLCCALPMWRVTAFIGSNIVTSQTIWEGLWMNCVVQSTGQMQCKVYDSLLALPQDLQAARALVIISIIVAALGVLLSVVGGKCTNCLEDESAKAKTMIVAGVVFLLAGLMVIVPVSWTAHNIIQDFYNPLVASGQKREMGASLYVGWAASGLLLLGGGLLCCNCPPRTDKPYSAKYSAARSAAASNYV
chain 2: RCVLTVPSTDIEKEILDLAAATERLNLTDALNSNPAGNLYDWRSSNSYPWTQKLNLHLTITATGQKYRILASKIVDFNIYSNNFNNLVKLEQSLGDGVKDHYVDISLDAGQYVLVMKANSSYSGNYPYSILFQKF

Variants of B1 are the subject of this experiment. In words: pull-down. The note with it: with partner chain of the complex shown; n = 4; parent: 1; read off a plot.
chain 1 I40A: the ratio to parent came to 1.1.

Take chain 1 I40D: the ratio to parent worked out at 0.21.

These data come from article PMC5028891 (Scientific Reports, 2016).
